Assay results taken from publication PMC3022805 (Journal of Biomedical Science, 2011).
Changes are numbered by the printed parent chain. “And” between values parts separate entries of the source, which are not always exact repeats. Identical values can stand only once.

B1: apoE3-(72-166) (domain or fragment, human, UniProt P02649 90-184, looked up)
chain: KAYKSELEEQLTPVAEETRARLSKELQAAQARLGADMEDVCGRLVQYRGEVQAMLGQSTEELRVRLASHLRKLRKRLLRDADDLQKRLAVYQAGA
notes: 12 kDa; numbers count on: the mature protein of 299 amino acids; source: E. coli, purified
B2: apoE4-(72-166) (domain or fragment, human, UniProt P02649 90-184, looked up)
chain: B1 chain with C41R
notes: as for B1
B3: apoE2-(72-166) (domain or fragment, human, UniProt P02649 90-184, looked up)
chain: B1 chain with R87C
notes: 12 kDa; numbers count on: the mature protein of 299 amino acids; cDNA amplified with the printed primers and ligated NdeI-XhoI into pET-29a(+); source: E. coli, purified

What was measured:
[1] = molecular target: the molecule itself; experiment: AUC; sedimentation velocity and sedimentation equilibrium fitted together to a global discrete species model (SEDPHAT); PBS pH 7.3 with 50 mM DHPC (micelles), 20°C
[2] = molecular target: the molecule itself; experiment: AUC; sedimentation velocity (42,000 rpm, 0.5 mg/ml) and sedimentation equilibrium (10,000, 15,000, 20,000 rpm, 18 h each) fitted together to a global discrete species model (SEDPHAT); PBS pH 7.3, 20°C, no DHPC
[3] = molecular target: the molecule itself; experiment: AUC; sedimentation velocity and sedimentation equilibrium fitted together to a global discrete species model (SEDPHAT); PBS pH 7.3 with 5 mM DHPC (submicellar), 20°C

Protein	stoichiometry N [1]	stoichiometry N [2]	stoichiometry N [3]
B1	2	6	4
B2	2	4	–
B3	4	2 and 6	–
